Article PMC5309953, “IRAV (FLJ11286), an Interferon-Stimulated Gene with Antiviral Activity against Dengue Virus, Interacts with MOV10”

Target: IRAV (FLJ11286) (UniProt Q9NUL5 1-269)
Assay: fluorescence polarization; FP: oligos in 100 mM KCl, 20 mM HEPES pH 7.4 (heated to 85 C, slow cooled); protein purified in 200 mM NaCl, 20 mM HEPES pH 7.4; assay temperature not stated
Settings: protein: recombinant; tags: N-terminal His-MBP; label: 3'-FAM; single strand

Sequence of IRAV (FLJ11286) (Q9NUL5 1-269): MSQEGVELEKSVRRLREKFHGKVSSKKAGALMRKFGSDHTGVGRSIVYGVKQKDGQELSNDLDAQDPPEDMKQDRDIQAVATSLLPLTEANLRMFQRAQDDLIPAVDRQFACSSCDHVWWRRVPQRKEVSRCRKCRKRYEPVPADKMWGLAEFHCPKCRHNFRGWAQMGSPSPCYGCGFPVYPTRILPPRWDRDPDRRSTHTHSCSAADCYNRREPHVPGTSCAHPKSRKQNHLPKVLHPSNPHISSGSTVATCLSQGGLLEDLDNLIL

Row | Binder | binding result
1 | AGTTGTTAGTCTACGTGGAC (ssDNA) [ssDNA 20-mer] | binds
2 | AGUUGUUAGUCUACGUGGAC (ssRNA) [ssRNA 20-mer] | binds
